The nature of the data set: Solubility of P-1 in water and THF. The class given is physicochemical. The note with it: method not described.

As usually defined, the solubility is the dissolved amount per volume that the medium holds. Regarding `O=C(O)[C@H](Cc1ccccc1)NC(=O)[C@H](Cc1ccccc1)N1C(=O)c2ccc3c4ccc5c6c(ccc(c7ccc(c2c37)C1=O)c64)C(=O)N([C@@H](Cc1ccccc1)C(=O)N[C@@H](Cc1ccccc1)C(=O)O)C5=O` [P-1], the “solubility in THF” value (THF (good solvent)) was ~ 0.1 mM. The solubility (water (poor solvent)) was below 0.1 µM.

The record behind these values is publication PMC5573372, “Solvent Assisted Tuning of Morphology of a Peptide-Perylenediimide Conjugate: Helical Fibers to Nano-Rings and their Differential Semiconductivity” (Scientific Reports, 2017).
